Molecular target: the molecule itself
Assay: SEC; HiLoad 16/600 Superdex 200, Tris buffer (50 mM, pH 8.0, 150 mM NaCl), calibrated with proteins of known mass; final purification step

| Protein | stoichiometry N |
| --- | --- |
| Human glutathione transferase A4-4 (hGST A4-4) (enzyme, UniProt O15217 1-222, looked up, Human glutathione transferase A4 (alpha class), ORF of GenBank Y13047.1; Homodimer; Expressed as a C-terminal fusion to His-tagged Trx1 with a TEV site in between; the fusion partner was cut off; the printed mass (25,761 Da) may include such a remnant (surmise); source: E. coli BL21(DE3), pET-Trx1b, purified (GSH-Sepharose, TEV cleavage, HisTrap flow through, SEC); not shown: His tag, N-terminal, …) MAARPKLHYPNGRGRMESVRWVLAAAGVEFDEEFLETKEQLYKLQDGNHLLFQQVPMVEIDGMKLVQTRSILHYIADKHNLFGKNLKERTLIDMYVEGTLDLLELLIMHPFLKPDDQQKEVVNMAQKAIIRYFPVFEKILRGHGQSFLVGNQLSLADVILLQTILALEEKIPNILSAFPFLQEYTVKLSNIPTIKRFLEPGSKKKPPPDEIYVRTVYNIFRP | 2 |
| Human glutathione transferase M1-1 (hGST M1-1) (enzyme, UniProt P09488 1-218, looked up, Human glutathione transferase M1 (mu class), ORF of GenBank X08020.1; purified without tags; Homodimer; In the crystal it carries the small-molecule adduct GS-10-NO2-OA in the active site; source: E. coli BL21(DE3), pET22b, purified (GSH-Sepharose, SEC)) MPMILGYWDIRGLAHAIRLLLEYTDSSYEEKKYTMGDAPDYDRSQWLNEKFKLGLDFPNLPYLIDGAHKITQSNAILCYIARKHNLCGETEEEKIRVDILENQTMDNHMQLGMICYNPEFEKLKPKYLEELPEKLKLYSEFLGKRPWFAGNKITFVDFLVYDVLDLHRIFEPKCLDAFPNLKDFISRFEGLEKISAYMKSSRFLPRPVFSKMAVWGNK | 2 |

Source: publication PMC11999266, “Human glutathione transferases catalyze the reaction between glutathione and nitrooleic acid” (The Journal of Biological Chemistry, 2025)
